Data published in article PMC12255303, “Regulation of a phage defence island by RptR, a novel repressor that controls restriction–modification systems in diverse bacteria”.

Key:
[1] = target: RptR (RMS-proximal transcriptional regulator) with an N-terminal His6 tag and 3C protease cleavage site (Escherichia coli O127:H6 E2348/69 (EPEC)); experiment: SEC; analytical SEC on Superdex 75 Increase 10/300 GL, calibrated with five low-MW standards; MW of His6-3C-RptR interpolated from elution volumes of the purification (SEC buffer 25 mM Tris-HCl pH 8, 200 mM KCl)
[2] = target: T1, RptR (His6-3C-RptR) (Escherichia coli O127:H6 E2348/69 (EPEC), UniProt B7UP23 1-79); experiment: EMSA; up to 1.2 uM RptR; EMSA: 25 mM Tris-HCl pH 8, 150 mM NaCl, 5 mM MgCl2, 0.05 uM dsDNA, 37 C 30 min then 4 C; 8% TBE-PAGE at 4 C, SYBR Gold; settings: protein: recombinant; tags: N-terminal His6 and 3C protease site (cleavage not described); chain copies: 2; blunt
T1 sequence: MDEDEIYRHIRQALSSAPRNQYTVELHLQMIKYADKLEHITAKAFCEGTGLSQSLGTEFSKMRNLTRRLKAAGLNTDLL

[3] = target: T1, RptR (His6-3C-RptR); experiment: EMSA; per RptR dimer; Hill coefficient 3.4; EMSA: 25 mM Tris-HCl pH 8, 150 mM NaCl, 5 mM MgCl2, 0.05 uM dsDNA, 37 C 30 min then 4 C; 8% TBE-PAGE at 4 C, SYBR Gold; settings: protein: recombinant; tags: N-terminal His6 and 3C protease site (cleavage not described); chain copies: 2; blunt
[4] = target: T1, RptR (His6-3C-RptR); experiment: EMSA; higher shift only; settings: protein: recombinant; tags: N-terminal His6 and 3C protease site (cleavage not described); chain copies: 2; blunt
[5] = target: T1, RptR (His6-3C-RptR); experiment: EMSA; same shift as DR1/s/3; settings: protein: recombinant; tags: N-terminal His6 and 3C protease site (cleavage not described); chain copies: 2; blunt
[6] = target: T1, RptR (His6-3C-RptR); experiment: EMSA; single shift; settings: protein: recombinant; tags: N-terminal His6 and 3C protease site (cleavage not described); chain copies: 2; blunt
[7] = target: T1, RptR (His6-3C-RptR); experiment: EMSA; binding abolished; settings: protein: recombinant; tags: N-terminal His6 and 3C protease site (cleavage not described); chain copies: 2; blunt

Which stoichiometry N [1] does the source give for “RptR (RMS-proximal transcriptional regulator) with an N-terminal His6 tag and 3C protease cleavage site (natural protein)” here?
The stoichiometry N was 2.

B1: DRs/s/s (dsDNA)
DNA 1: AGTTCTTGAACCTGATACCACATTGAATCTATTGAATCTATTGAATCTACTTATCCATTA
DNA 2: TAATGGATAAGTAGATTCAATAGATTCAATAGATTCAATGTGGTATCAGGTTCAAGAACT
Does B1 bind [2]?
Result: no binding

B2: DR1/2/3 (WT) (dsDNA)
DNA 1: AGTTCTTGAACCTGATACCACATTTAGCTAATTTAGCTAATTTAGCTAACTTATCCATTA
DNA 2: TAATGGATAAGTTAGCTAAATTAGCTAAATTAGCTAAATGTGGTATCAGGTTCAAGAACT
For B2, which Kd [3] is on record?
Its Kd is 185 nM.

B3: DR1/s/3 (dsDNA)
DNA 1: AGTTCTTGAACCTGATACCACATTTAGCTAATTGAATCTATTTAGCTAACTTATCCATTA
DNA 2: TAATGGATAAGTTAGCTAAATAGATTCAATTAGCTAAATGTGGTATCAGGTTCAAGAACT
Does B3 bind [4]?
Result: binds

B4: DR1/r/3 (dsDNA)
DNA 1: AGTTCTTGAACCTGATACCACATTTAGCTAAGAGAGAGAGTTTAGCTAACTTATCCATTA
DNA 2: TAATGGATAAGTTAGCTAAACTCTCTCTCTTAGCTAAATGTGGTATCAGGTTCAAGAACT
Does B4 bind [5]?
Result: binds

B5: DRs/2/3 (dsDNA)
DNA 1: AGTTCTTGAACCTGATACCACATTGAATCTATTTAGCTAATTTAGCTAACTTATCCATTA
DNA 2: TAATGGATAAGTTAGCTAAATTAGCTAAATAGATTCAATGTGGTATCAGGTTCAAGAACT
Does B5 bind [6]?
Result: binds

B6: DR1/2/3 C6G (labelled C5G in Fig S4) (dsDNA)
DNA 1: AGTTCTTGAACCTGATACCACATTTAGGTAATTTAGGTAATTTAGGTAACTTATCCATTA
DNA 2: TAATGGATAAGTTACCTAAATTACCTAAATTACCTAAATGTGGTATCAGGTTCAAGAACT
Does B6 bind [7]?
Result: no binding

B7: DR1/2/s (WT control) (dsDNA)
DNA 1: AGTTCTTGAACCTGATACCACATTTAGCTAATTTAGCTAATTGAATCTACTTATCCATTA
DNA 2: TAATGGATAAGTAGATTCAATTAGCTAAATTAGCTAAATGTGGTATCAGGTTCAAGAACT
Does B7 bind [6]?
Result: binds
